# Measurements from patent publication US7642046B2, “Method for monitoring recruitment of proteins to the intracellular domain of a receptor in intact cells” (priority 2001, dated 2010).
# How the values were obtained:
# Assay type in all cases: cell-based
# CD40 mutants [1] = biological target: T1, CD40 mutants (Homo sapiens, UniProt P25942, E235A); assay: Recruitment assay in intact cells with CD40 mutants (deletions or point mutations in TRAF binding sites); conditions: E235A plus deletion of PXQXT254 motif
# T1 construct: expressed in transfected cells; host or cells: 293T
# Experimental: (§1) The lysates were cleared by centrifugation at 15000 G at 4° C. in a micro-centrifuge, 3 fold serially diluted (with lysis buffer containing 1% bovine serum albumin) and then every diluted sample incubated for 2 hours at room temperature (or overnight) in wells of ELISA microtiter plates coated with a mAb (Ro1) specific to the CD40 extra-cellular domain (Schwabe et al. 1997). For control purposes, instead of the wild type CD40 plasmid, a plasmid encoding a CD40 mutant lacking the entire signaling domain was used for transfection and transient expression (CD401-222, FIG. 1B). Following incubation exhaustive washes were carried out on the microtiter plates to remove any unbound protein [about 10 washing steps with PBS containing 0.05% Tween 20) PBS/Tween)]. To detect bound TRAF1, anti TRAF1 specific antibodies were loaded into the plates, incubated for about 3 hours at room temperature, […] by extensive washes to remove unbound antibody and detecting the bound antibody with an HRP conjugated secondary antibody. All antibodies (except when used as solid phase antibody) were diluted in PBS/Tween containing 1% BSA.
# (§2) The recruitment of TRAF to CD40 can be quantitatively measured using the assay described in example 1. For that purpose, the assay conditions were adjusted in such a way that TRAF expression was in significant excess over the expression of CD40. This was the case when the TRAF expression plasmid was used at a two to three fold excess over the CD40 expression plasmid. The CD40 bound TRAF concentration was measured as described in example 1. A reference extract containing CD40/TRAF complexes served as a standard in each assay. This standard extract consisted of a large pool extract from cells that had been co-transfected with the plasmids encoding CD40/TRAF1, CD40/TRAF2, CD40/TRAF3, CD40/TRAF5 and CD40/TRAF6. The extracts were tested for the presence of CD40/TRAF complexes and the complex concentrations in each extract were arbitrarily defined as 1000 U/ml. The extracts were frozen in small aliquots and kept at −80° C. until further use. By comparing unknown samples to these extracts, it was possible to determine the relative CD40-TRAF complex concentrations in arbitrary units. The necessary normalization for sample-to-sample variations in the CD40 expression was calculated with the following formula: […]
# (§3) The quantitative version of the TRAF recruitment assay as described in example 3 was used to compare CD40 and various CD40 mutants with respect to their TRAF recruitment behaviour. TRAF 1, 2, 3, 5 and 6 were examined. […] Additional deletion of the TRAF1/2/3/5 binding motif PXQXT254 at amino acid position 250 to 254 reduced the binding of all 5 TRAFs test to background levels (1-254EA in FIG. 3B). […]
# CD40 = biological target: T2, CD40 (Homo sapiens, UniProt P25942); assay: Recruitment assay in intact cells: CD40 and TRAF co-expressed in 293T cells, anti-CD40 capture ELISA of lysate; conditions: for interaction with CD40 when signalosome assembly occurred in an intact cell: co-expressed in 293T cells, versus cell lysate
# T2 construct: expressed in transfected cells; host or cells: HEK 293T
# Experimental: In order monitor TNF receptor associated factor 1 (TRAF1) recruitment to the CD40 receptor, in intact cells, CD40 and TRAF1 encoding plasmids generated as described in example 7) were used to co-transfect the human embryonic kidney 293T cells (HEK293 ATTC CRL-1573 over expressing the T antigen) (DuBridge et al 1987). 2×10^5 cells were seeded at into 3.5 cm dishes grown 16 hours at 37° C. and transfected with 1 μg CD40 expression plasmid and 2 μg of an expression plasmid encoding TRAF by the calcium phosphate method (Kingston et al. 1993). The two expression plasmids, TRAF1 plasmid and CD40 plasmid were used for transfection at a ratio greater than 2:1 respectively in order to saturate all the CD40 molecules produced. Twenty-seven hours after transfection, the cells were detached, washed once with ice cold phosphate buffered saline (PBS) and detergent extracted with
# 180 μl lysis buffer [phosphate buffered saline (PBS) containing a protease inhibitor cocktail (0.16 mM Pefabloc, 105 IU Aprotinin), 1% Triton X100 and 0.1% Na Azide]. Since CD40 has a tendency for ligand independent signaling when expressed at high levels it was not necessary to activate the receptor with DC40 ligand or mimetic anti CD40 antibodies before lysis. This feature is shared by various members of the TNFR gene family (Boldin et al. 1995, Siegel et al. 2000 and Chan et al. 2000). […]
# The recruitment of TRAF to CD40 can be quantitatively measured using the assay described in example 1. […] The CD40 bound TRAF concentration was measured as described in example 1. […] The necessary normalization for sample-to-sample variations in the CD40 expression was calculated with the following formula:
# [formula] CD40 concentrations were determined with an ELISA employing a monoclonal antibody (solid phase) and a polyclonal anti CD40 antibody (for detection) both specific for the extracellular domain of the receptor. […]
# CD40 mutants [2] = biological target: T3, CD40 mutants (Homo sapiens, UniProt P25942); assay: Recruitment assay in intact cells with CD40 mutants (deletions or point mutations in TRAF binding sites); conditions: CD40-222 (CD40 1-222) control, 293T cells
# T3 construct: expressed in transfected cells; host or cells: 293T
# Experimental: as §1, §2, §3
# T2 sequence (P25942 21-277): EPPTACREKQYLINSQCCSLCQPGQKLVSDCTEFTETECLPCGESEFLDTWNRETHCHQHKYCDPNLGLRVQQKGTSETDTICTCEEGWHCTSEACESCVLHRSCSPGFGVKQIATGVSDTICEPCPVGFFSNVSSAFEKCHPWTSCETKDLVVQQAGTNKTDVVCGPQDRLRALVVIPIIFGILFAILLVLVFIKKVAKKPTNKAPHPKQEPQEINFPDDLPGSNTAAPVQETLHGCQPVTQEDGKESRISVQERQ
# T1 sequence (P25942 21-245 E235A): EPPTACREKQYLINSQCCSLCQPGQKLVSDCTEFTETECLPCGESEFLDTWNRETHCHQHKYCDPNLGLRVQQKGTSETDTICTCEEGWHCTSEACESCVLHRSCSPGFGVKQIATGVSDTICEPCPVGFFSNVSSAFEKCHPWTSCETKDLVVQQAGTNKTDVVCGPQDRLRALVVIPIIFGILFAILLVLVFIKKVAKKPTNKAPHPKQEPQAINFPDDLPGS
# T3 sequence (P25942 21-222, stated change not applied): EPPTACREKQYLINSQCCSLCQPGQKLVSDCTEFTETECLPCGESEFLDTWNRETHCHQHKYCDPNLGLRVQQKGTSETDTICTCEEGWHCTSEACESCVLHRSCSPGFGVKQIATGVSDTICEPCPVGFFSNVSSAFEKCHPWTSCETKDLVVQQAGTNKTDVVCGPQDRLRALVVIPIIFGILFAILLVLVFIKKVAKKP
Molecule,binding to CD40 mutant 1-254EA (CD40 mutants [1]),interaction with CD40 when signalosome assembly occurred in an intact cell (CD40),recruitment to signalling-domain-deficient CD40 mutant (CD40 mutants [2]),"dilution of the original extract up to which recruitment to the CD40 receptor can be detected (CD40; CD40 wt co-expressed with TRAF1 in 293T cells, 3 fold serial dilutions of lysate)"
"TRAF2: TNF receptor associated factor 2, human adaptor protein expressed from pcDNA3 (protein, UniProt Q12933 1-501, looked up, full-length, TNF receptor associated factor 2, human adaptor protein expressed from pcDNA3) MAAASVTPPGSLELLQPGFSKTLLGTKLEAKYLCSACRNVLRRPFQAQCGHRYCSFCLASILSSGPQNCAACVHEGIYEEGISILESSSAFPDNAARREVESLPAVCPSDGCTWKGTLKEYESCHEGRCPLMLTECPACKGLVRLGEKERHLEHECPERSLSCRHCRAPCCGADVKAHHEVCPKFPLTCDGCGKKKIPREKFQDHVKTCGKCRVPCRFHAIGCLETVEGEKQQEHEVQWLREHLAMLLSSVLEAKPLLGDQSHAGSELLQRCESLEKKTATFENIVCVLNREVERVAMTAEACSRQHRLDQDKIEALSSKVQQLERSIGLKDLAMADLEQKVLEMEASTYDGVFIWKISDFARKRQEAVAGRIPAIFSPAFYTSRYGYKMCLRIYLNGDGTGRGTHLSLFFVVMKGPNDALLRWPFNQKVTLMLLDQNNREHVIDAFRPDVTSSSFQRPVNDMNIASGCPLFCPVSKMEAKNSYVRDDAIFIKAIVDLTGL",did not bind,clearly improved sensitivity,,
"TRAF1: TNF receptor associated factor 1, adaptor protein overexpressed in 293T cells from pcDNA3 (protein, UniProt Q13077 1-416, looked up, full-length, TNF receptor associated factor 1, adaptor protein overexpressed in 293T cells from pcDNA3) MASSSGSSPRPAPDENEFPFGCPPTVCQDPKEPRALCCAGCLSENPRNGEDQICPKCRGEDLQSISPGSRLRTQEKAHPEVAEAGIGCPFAGVGCSFKGSPQSVQEHEVTSQTSHLNLLLGFMKQWKARLGCGLESGPMALEQNLSDLQLQAAVEVAGDLEVDCYRAPCSESQEELALQHFMKEKLLAELEGKLRVFENIVAVLNKEVEASHLALATSIHQSQLDRERILSLEQRVVELQQTLAQKDQALGKLEQSLRLMEEASFDGTFLWKITNVTRRCHESACGRTVSLFSPAFYTAKYGYKLCLRLYLNGDGTGKRTHLSLFIVIMRGEYDALLPWPFRNKVTFMLLDQNNREHAIDAFRPDLSSASFQRPQSETNVASGCPLFFPLSKLQSPKHAYVKDDTMFLKCIVETST",,clearly improved sensitivity,undetectable,≤ 243 fold
